For assay [1], the target named is C. difficile toxin A (Clostridium difficile, UniProt P16154 1-2710). Nature of the assay: cell-based or functional assay.
The target in assay [2] is T1, genetically modified and chemically inactivated C. difficile toxoid A (Clostridium difficile, UniProt P16154 2-2710).
T1 construct: also called TxdA; the toxoid
Nature of the assay: ITC.

B1: hCDIFA-55 (antibody, V domains shown)
VH: EVQLLESGAEVKKPGASVKVSCKASAYTFTTYGINWVRQAPGQGLEWMGWVSFSNGNTEYAQKFQGRVTMTTDTSTSTAFMELRSLRSDDTAVYYCASEKGELLSGCFDPWGQGTLVTVSS
VL: QSVLTQPPSVSAAPGQKVTISCSGSSSNIGNSLVSWYQHLPGTAPKLLISDNNERPSGIPDRFSGSKSGTSATLGITGLQTGDEADYYCGTWDSSLSVVVFGGGTKLTVLG
Consider B1, for which the “EC50 TcdA [RLU], toxin neutralization assay (TNA) on IMR90 cells” value (from here on “EC50 TcdA [RLU]”) in assay [1] was 942000 RLU.

B2: hCDIFA-4 (antibody, V domains shown)
VH: QVQLQESGPGLVKPSGTLSLTCAVSGGSISSINWWSWVRQPPGKGLEWIGEIYHSGSTNYNPSLKSRVTISVDKSKNQFSLKLSSVTAADTAVYYCAREGKVDSSSQGNWFDPWGQGTLVTVSS
VL: QPVLTQPRSVSGSPGQSVTISCTGTSSDVGGYNYVSWYQQHPGKAPKFMIYDVSKRPSGVPDRFSGSKSGNTASLTISGLQAEDEADYYCCSYAGTYTFYVFGTGTKVTVLG
Take B2: the “EC50 TcdA [RLU]” value in assay [1] turned out to be 22800 RLU.

B3: hCDIFA-24 (antibody, V domains shown)
VH: QVQLVQSGGGVVQPGRSLRLSCAASGFSFSTHGMHWVRQAPGKGLEWVAVISYDGSNKYYADSVKGRFTISRDNSKNTVYLQMNSLRAEDTAVFYCAKPRDNYYYYGMDVWGQGTTVTVSS
VL: AIRMTQSPSSLSASTGNRVTITCRASQGISSYLAWYQQKPGKAPNLLIYAASTLQSGVPSRFTGSGSGTDFTLTISRLHSENFATYYCQQYFNYPRTFGQGTRLEIKR
With B3, in assay [1], the “EC50 TcdA [RLU]” value was found to be 6300 RLU. Moreover, in assay [2], the “DH” value is -11.2 kcal/mol, binding was put at a Kd of 6 nM and the Stoichiometry stood at 1.07.

B4: hCDIFA-5 (antibody, V domains shown)
VH: EVQLVESGPGLVKPSETLSLTCAVSGGSISGYYWSWIRQPPGKGLEWIAYIYDSGSTSHNPSLKSRVTTSVDTSKNQFSLKLNSVTAADTAVYYCARSGKWALGAFDMWGQGTMVTVSS
VL: QSALTQPPSVSGAPGQRVTISCTGSSSNIGAGYDVHWYQQLPGTAPKLLISGNNNRPSGVPDRFSGSKSGTSASLAITGLQAEDEADYYCQSYDNDLSGLVVFGGGTKLTVLG
B4: the “EC50 TcdA [RLU]” value in assay [1] came out at 1450 RLU.

B5: hCDIFA-59 (antibody, V domains shown)
VH: QVQLVESGGGLVQPGRSLRLSCRTSGFTFGDFALSWVRQAPGKGLEWVGYIRSKTFGGTTEYAASVKGRFTMSRDDSKSIAYLQMNSLKTEDTAVYFCTRASYGAFDYWGQGTLVTVSS
VL: DIVMTQSPSSLSASVGDTVTITCRAGQNIATYLHWYQQKPGKAPNLLIYDARTLQSGVPSRFSGSGSGTDFTLTINSLQPEDFATYYCQQSYNTPWTFGQGTKVEIKR
As to B5, the “EC50 TcdA [RLU]” value in assay [1] came out at 9 RLU.

B6: hCDIFA-47 (antibody, V domains shown)
VH: QVQLQESGAEVKKPGSSVKVSCQASGGTFSNYAFNWVRQAPGQGLEWMGRTIPIVGLVNYAQNFQGRITFSADKSTSTAYMEVNSLRSDDTAVYYCARAEYPLNCTRGNCDVGTSYHYYYGMGVWGRGTTVTVSS
VL: EIVMTQSPATLSVSPGERATLSCRASQSISSNLAWFQQKPGQAPRLLIHGASTRATGIPVRFSGSGSGTEFTLTISSLQFGDSAVYYCQQYYNWRYTFGQGTKLEIKR
Turning to B6, in assay [1], the “EC50 TcdA [RLU]” value is 12700 RLU.

B7: hCDIFA-6 (antibody, V domains shown)
VH: QVQLQESGPGLVKPSQTLSLTCSVSGDSSSSGDYYWNWIRQPAGKGLEWIGYIYTSGSTNYNPSLKSRVTISEDTSKKQFSLKLTSVTAADTAVYYCARGIVGVGLDYWGQGTLVTVSS
VL: EIVMTQSPSTLSASVGDRVTITCRASQTISSWLAWYQQKPGRAPKLLMSKTSTLQPGVPSRFSGSGSGTEFTLTISGLQPDDVATYYCHHYNSWPFGPGTKVEIKR
For B7, the “EC50 TcdA [RLU]” value in assay [1] came out at 1420 RLU.

B8: hCDIFA-54 (antibody, V domains shown)
VH: QVQLVESGAEVKKPGASVKVSCKASGYTFTSYDINWVRQATGQGLEWMGWMNPNSGNTGYAQKFQGRVTMTRNTSISTAYMELSSLRSEDTAVYYCARGGPNSGSFSHWFDPWGQGTLVTVSS
VL: QAVVTQPPSASASLGASVTLTCTLSSGYSNYKVDWYQQRPGKGPRFVMRVGTGGIVGSKGDGIPDRFSVLGSGLNRYLTIKNIQEDDESDYHCGADHGSGSNFAVVFGGGTKLTVLG
In the case of B8, in assay [1], the “EC50 TcdA [RLU]” value was found to be 1490 RLU.

B9: hCDIFA-41 (antibody, V domains shown)
VH: QVQLQESGPGLVKPSQTLSLTCTVSGDSISSNQYYWTWIRQPAGKGLEWIGQIESAYFTNYNPSLKGRVTISGDASKNVLSLTLTSVTAADTALYWCAREAGGGLGYCTGGRCQFSGYYYYGLDVWGQGTTVTVSS
VL: QSALTQPPSVSAAPGQTVTISCSGSHSNIGNNYVSWYQQLPGTAPRRLIYDTDKRPSGIPDRFSGSKSGTSATLVITGLRAGDEADYYCGTWDGSLSAGVFGGGTKLTVLG
As to B9, the “EC50 TcdA [RLU]” value in assay [1] is 673 RLU.

B10: hCDIFA-35 (antibody, V domains shown)
VH: EVQLVQSGGGVVQPGRSLKLSCAASGFSFSSHGMHWVRQAPGKGLEWVALISYDGSYKYYEDSVKGRFTISRDNSKNTLYLQMNSLRAEDTAVYYCAKDWERYCSGMSCYLRNSLDYWGQGTLVTVSS
VL: QSALTQPPSVSVAPGKTAGITCGGPNIGSKSVHWYQRKPGQAPVLVVYDDRYRPSGIPERFSGSNSGNTATLSISRVEAGDEADYYCQVWDSRSDHVVFGGGTKLTVLG
With B10, the “EC50 TcdA [RLU]” value in assay [1] was about 52 RLU. In addition, in assay [2], the “DH” value was -16.6 kcal/mol, the Kd worked out at 8 nM and the Stoichiometry is 1.04.

B11: hCDIFA-32 (antibody, V domains shown)
VH: QVQLQESGPGLVKPSETLSLTCTVSGGSISSHYWSWIRQTPGKGLEYIGNIYYTGRTKYNPSLKSRVTISADMSKNQVSLKLNSVTAADTAVYYCARGGPLMDVWGQGTTVTVSS
VL: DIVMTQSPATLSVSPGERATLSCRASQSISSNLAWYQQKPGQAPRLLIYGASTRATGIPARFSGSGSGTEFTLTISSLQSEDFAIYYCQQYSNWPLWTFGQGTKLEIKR
B11: the “EC50 TcdA [RLU]” value in assay [1] came to 306 RLU. In addition, in assay [2], the “DH” value was -12 kcal/mol, the Kd worked out at 21 nM and the Stoichiometry was 0.21.

B12: hCDIFA-53 (antibody, V domains shown)
VH: QVQLQQSGPGLVKPSETLSLTCTLSGGSISSDNYYWGWVRQPPGKGLEWIGSIYYSGSTYYNPSLKSRVFISVDMSKNQFSLKLSSVTAADTAVYYCARHTQGLGILRYFDWWTRPFDYWGQGTLVTVSS
VL: QSALTQPASVSGSPGQSITISCTGTSSDVGSYNLVSWYQQHPGKAPKLMIYEGSKRPSGVSNRFSGSKSGNTASLTISGLQAEDEADYYCCSYAGSSTLFGGGTKLTVLG
Take B12: the “EC50 TcdA [RLU]” value in assay [1] came out at 4100 RLU.

B13: hCDIFA-50 (antibody, V domains shown)
VH: QVQLVQSGTEVKKPGASVKVSCKASGYTFTNYGISWVRQAPGQGLEWMGWISGNNGHTNYAQNLQGRVTMTTDTSTSTAYMELRSLRSDDTAVYYCARVTRWFGELLGDYWGQGTLVTVSS
VL: QTVVTQEPSLTVSPGGTVTLTCASSTGAVTSGFLPNWFQQKPGQAPRALIYNTNNKHSWTPARFSGSLLGGKAALTLSGVQPEDEAEYYCLLYFDDAQVQVFGGGTKLTVLG
Regarding B13, in assay [1], the “EC50 TcdA [RLU]” value was found to be 1490 RLU.

B14: hCDIFA-1 (antibody, V domains shown)
VH: QLQLQESGPGLVKPSETLSLICTVSGGSFSSSDFYWGWIRQPPGKGLEWIGNFYYNGSTSYNPSLKSRVTISVDTSKNQFSLKLRSVTAADTAVYYCARDYNFWNNSPNWFDPWGQGTLVTVSS
VL: EIVMTQSPATLSVSPGERATLSCRASQSISSNLAWYQQKLGQAPRLLIHGASTRATGIPARFSGSGSGTQFTLTISSLQSEDFAVYFCQQYNNWPPTFGGGTKVDIKR
In the case of B14, the “EC50 TcdA [RLU]” value in assay [1] turned out to be 5760 RLU. In assay [2], the “DH” value was -17.2 kcal/mol, the Kd stood at 8 nM and the Stoichiometry worked out at 1.45.

B15: hCDIFA-51 (antibody, V domains shown)
VH: EVQLLESGGGVVQPGRSLRLSCAASGFTFSNYGMHWVRQAPGKGLEWVAVIWYDGSNKYYADSVKGRFTISRDNSKNMVYLQMNSLRGADTAVYYCAGDRHLGLWGYYYYYYAMDVWGQGTTVTVSS
VL: QAVVTQPPSVSAAPGQRVTISCSGSSSNIGKNYVSWYQHLPGTAPKLLIYESNKRPSGIPDRFSGSKSGTSATLGITGLQTGDEADYYCGTWDSSLSAGLFGGGTKVTVLG
With B15, the “EC50 TcdA [RLU]” value in assay [1] was found to be 1640 RLU.

B16: hCDIFA-43 (antibody, V domains shown)
VH: QVQLVQSGPVLVKPTETLMLTCTVSGFSLSSAGMGVSWIRQPPGKAPEWLAHIFLSDEKSYRTSLESRLTISKDTSKSQVVLIMTNVDPADTATYYCARALKRYCTGGVCFLNWFDSWGPGTVVTVSS
VL: DIVMTQSPGTLSLSPGERATLSCRASLSIGNLYLAWYKQRPGHPPRLLIYGASSRATGTPDRFSGSGSGTDFTLTISRLEPEDFVVYYCQQYKTSPWTFGQGTKVEIKR
Regarding B16, the “EC50 TcdA [RLU]” value in assay [1] is 3210 RLU.

B17: hCDIFA-37 (antibody, V domains shown)
VH: QVQLLESGPGLVKTSGTLSLTCSVSGDSVSTNNWWTWVRQPPGKGLEWIGEIYYNGNTIYNPSFKSRVTISVNRSKNHFSLKLNSVTAADRAVYYCARRTWNDVGPFDYWGQGILVTVSS
VL: DIVMTQSPSSLSASIGDRVIITCRASQNINRYLNWYQQTAGKAPKLLIYGTSNLQSGVPSRFSGSGSGSGTDFTLTISSLQPEDFATYYCHQSYRTPQTFGQGTKLEIKR
Turning to B17, the “EC50 TcdA [RLU]” value in assay [1] worked out at 37100 RLU. Also, in assay [2], the “DH” value was -7.9 kcal/mol, the Kd came to 7 nM and the Stoichiometry was found to be 0.95.

B18: hCDIFA-15 (antibody, V domains shown)
VH: QVQLVQSGAEVKKPGASVKISCKASGYTFVRYYMHWVRQAPGQGLEWMGLIDPSGGSTRYAQRFQGRVTMTRDTSTSTVYMELSGLRSEDTAVYYCARDGPFGGLSGGNWFDPWGQGTLVTVSS
VL: AIRMTQSPGTLSLSPGERATLSCRASQSLSFSYLAWYQQKPGQAPRLLIYGASSRATGIPDRFSGSGSGTDFALTISRLEPEDFAVYYCQQYGTSPLTFGGGTKVDIKR
As for B18, the “EC50 TcdA [RLU]” value in assay [1] was about 147 RLU. For the same molecule, in assay [2], the “DH” value was -2.7 kcal/mol, the Kd was determined as 38 nM and the Stoichiometry worked out at 1.68.

B19: hCDIFA-49 (antibody, V domains shown)
VH: QVQLQESGPRLLEPSETLSLSCTVSGGSITSYYWGWIRQSPGKGLQWIGHIDSSGNTNYNYNSSLMNRVTISVVTSKNQFSLKLTSVTPADSAVYYCARVYLFYFGQSKWEYFDSWGQGTLVTVSS
VL: QSALTQPPSVSGAPGQRVTISCTGSDSNIGTDYDVHWYKQVPGAAPKLLIYGINNRPSGVPDRFSGSKSGTSASLAITGLQAEDEGDYYCQSYDIRPSGSVVFGGGTKLTVLG
B19: the “EC50 TcdA [RLU]” value in assay [1] is 305000 RLU.
